Source: US20160264662A1 (US Dept. of Health and Human Services, published 2016)
Where a chain is given by its changes, count along the chain named.

How the values were obtained:
[1] = target: T1, human CMG2 (hCMG2) expressed on CHO or 293 cells (human, UniProt P58335 34-489); assay: flow cytometry (FACS), CHO cells expressing hCMG2 against parental CHO
T1 construct: whole, on cells; also called ANTXR2

[2] = target: T2, 293 mCMG2 (mouse, UniProt Q6DFX2); assay: flow cytometry (FACS), 293 cells expressing mCMG2 against parental 293
T2 construct: expressed on human embryonic kidney 293 cells; also called mouse CMG2; mouse ANTXR2 expressed on 293 cells
T2 sequence (Q6DFX2 32-487 limits assumed): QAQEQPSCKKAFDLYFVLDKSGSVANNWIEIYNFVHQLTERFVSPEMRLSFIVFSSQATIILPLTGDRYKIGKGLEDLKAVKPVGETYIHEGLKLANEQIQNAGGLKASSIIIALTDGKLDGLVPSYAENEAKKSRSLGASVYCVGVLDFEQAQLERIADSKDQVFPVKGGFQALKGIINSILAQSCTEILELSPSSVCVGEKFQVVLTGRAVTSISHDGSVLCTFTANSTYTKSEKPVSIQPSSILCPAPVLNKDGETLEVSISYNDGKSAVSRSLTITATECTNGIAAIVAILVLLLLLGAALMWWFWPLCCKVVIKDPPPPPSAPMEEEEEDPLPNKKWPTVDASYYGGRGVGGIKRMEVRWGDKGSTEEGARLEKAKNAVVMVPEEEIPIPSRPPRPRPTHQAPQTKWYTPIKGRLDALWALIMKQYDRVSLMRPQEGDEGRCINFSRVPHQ

[3] = target: T3, recombinant human TEM8 ectodomain (human, UniProt Q9H6X2 33-321); assay: SPR (Biacore), antibody in IgG1 format, recombinant human TEM8 ectodomain; apparent KD
T3 construct: also called TEM8-ED; Tumor Endothelial Marker 8
T3 sequence: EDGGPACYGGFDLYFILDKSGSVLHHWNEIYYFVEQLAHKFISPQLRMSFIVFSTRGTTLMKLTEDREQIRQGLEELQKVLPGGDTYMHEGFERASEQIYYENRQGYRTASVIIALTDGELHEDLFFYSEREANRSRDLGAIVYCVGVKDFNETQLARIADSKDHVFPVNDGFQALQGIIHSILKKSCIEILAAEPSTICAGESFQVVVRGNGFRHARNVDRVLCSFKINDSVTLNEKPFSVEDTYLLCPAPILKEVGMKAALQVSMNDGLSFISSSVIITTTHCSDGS

[4] = target: recombinant TEM8 (AP-TEM8); assay: ELISA-type titration of m825-MMAE on recombinant AP-TEM8; absorbance at 450 nm against Log (ng/well)

T1 sequence (P58335 34-489): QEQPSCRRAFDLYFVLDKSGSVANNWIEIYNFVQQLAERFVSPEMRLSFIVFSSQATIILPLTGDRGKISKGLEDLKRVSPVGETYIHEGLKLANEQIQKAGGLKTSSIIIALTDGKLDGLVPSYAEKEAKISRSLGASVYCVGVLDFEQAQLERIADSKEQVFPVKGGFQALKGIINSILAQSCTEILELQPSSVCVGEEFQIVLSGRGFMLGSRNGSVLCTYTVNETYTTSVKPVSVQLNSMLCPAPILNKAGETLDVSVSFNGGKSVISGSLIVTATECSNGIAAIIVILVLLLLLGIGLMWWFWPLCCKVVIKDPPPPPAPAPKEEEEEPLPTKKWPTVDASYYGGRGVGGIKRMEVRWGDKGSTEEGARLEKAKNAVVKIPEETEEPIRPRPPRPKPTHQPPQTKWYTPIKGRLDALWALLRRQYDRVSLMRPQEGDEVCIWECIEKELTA

B1: m830 antibody in human IgG1 format (antibody, V domains shown)
VH: EVQLVESGGGVVQPGRSVRLSCAASGFTFSTYTMHWVRQAPGKGLEWVAIISNDGSNKYYADPVRGRFTISRDNSKNTLYLQMNSLRAEDTAVYYCVRGSSWYRGNWFDPWGQGTLVTVSS
VL: DIQMTQSPSSLSASVGDRVTIACRASQTISRYLNWYQQKPGKAPKLLIYAASSLQSGVSSRFSGSGSGTEFTLTISSLQPEDFATYFCQQTYSPPITFGQGTRLEIKR
notes: also called m830 mAb; human m830-IgG1
binding result [1]: no binding | binding result [2]: no binding | Kd [3]: 12 nM

B2: m863 antibody in human IgG1 format (antibody, V domains shown)
VH: EVQLVETGAEVKKPGASVKVSCKASGYTFTGYYMHWVRQAPGQGLEWMGWINPTSGSTNYAQKFQGRVTMTRDTSISTAYMELSGLRSDDTAVYYCVRDPGSPKWLAFDPWGQGTLVTVSS
VL: B1 VL with M4L, A22T, Q27R, T28A
notes: also called m863 mAb
binding result [1]: no binding | binding result [2]: no binding | Kd [3]: 1.2 nM

B3: m825-MMAE conjugate (m825 antibody in human IgG1 format conjugated to MMAE) (other)
VH: QVQLVQSGAEVKKPGTSVKVSCKVPGYTFSSYAISWVRQAPGQGLEWMGGIIPIFGTTNYAQKFQGRVTITGEESTSTVYMELSSLRSEDTAVYYCARDTDYMFDYWGQGTLVTVSS
VL: SSELTQDPVVSVALGETVSITCQGDNLRDFYASWYQQKPGQAPLLVMYGKNRRPSGIPDRFSGSTSGNTLSLTITGAQAEDEADYYCSSRDNSKHVVFGGGTKVTVL
modifications: MMAE with stretcher unit, Val-Cit peptide cleavage site and spacer, attached to thiol groups formed by partial reduction of inter-chain disulfide bonds (positions not stated)
notes: also called anti-TEM8-MMAE
EC50 (read off the curve) [4]: ~0.5 ng/well

B4: m825 antibody in human IgG1 format (antibody, V domains shown)
VH: B3 VH
VL: B3 VL
notes: also called m825 mAb; human m825-IgG1
Kd [3]: 0.034 nM

B5: m822 antibody in human IgG1 format (antibody, V domains shown)
VH: B3 VH with T16A, P25S, T58A, G72A, E73D, V79A
VL: B3 VL
notes: also called m822 mAb
Kd [3]: 35 nM
